Data on eight molecules can be found in US20130171179A1 (OREGON HEALTH AND SCIENCE UNIVERSITY, published 2013).

In experiment [1] the target is T1, recombinant human DR2 (β1α1 RTL) (human).
T1 construct: Single-chain two-domain MHC class II polypeptide, with no peptide attached before loading; also called rDR2; DR2 RTL
T1 chain: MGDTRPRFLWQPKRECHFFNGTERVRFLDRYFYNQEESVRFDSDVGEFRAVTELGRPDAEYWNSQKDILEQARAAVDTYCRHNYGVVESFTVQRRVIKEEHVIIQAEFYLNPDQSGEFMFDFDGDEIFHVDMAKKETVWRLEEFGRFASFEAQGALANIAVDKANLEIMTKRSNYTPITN
Kind of experiment: disulfide capture, SDS-PAGE.

In experiment [2] the target is T2, recombinant IAg7 (rIAg7; RTL450), single polypeptide comprising the β1 and α1 domains of the MHC class II … (mouse).
T2 construct: no peptide attached; Internal C17-C79 disulfide bond; also called empty rIAg7; rIA7
T2 chain: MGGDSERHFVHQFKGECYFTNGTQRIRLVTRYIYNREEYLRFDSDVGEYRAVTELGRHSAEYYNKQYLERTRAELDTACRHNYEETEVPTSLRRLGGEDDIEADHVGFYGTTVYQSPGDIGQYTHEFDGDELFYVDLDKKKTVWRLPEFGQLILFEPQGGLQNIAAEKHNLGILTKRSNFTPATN
The experiment is described as follows: disulfide capture of amino-terminal truncated peptides, SDS-PAGE. On the procedure:
(§1) A mixture of 10:1 peptide:rIAg7 at 200 μg/ml, 100 mM NaPO₄ pH 6.5; 150 mM NaCl; 0.05% SDS; and 0.01% NaN₃ was produced. After inspecting the mixture for any precipitation, reactions were incubated at 37° C. for 60 hours. Analysis of ability of redox capture conditions to facilitate peptide capture by MHC was performed as follows: 20 μl aliquots at various time points were mixed with an equal volume of 2× electrophoresis sample buffer (1% glycerol, 500 mM Tris, 0.2% SDS, and bromophenol blue at pH 8.0). Samples were then placed on ice for 30 minutes, heated at 90° C. for 6 minutes with or without β-mercaptoethanol and separated by 10-20% SDS-PAGE followed by Coomassie Blue staining to visualize the proteins. Proteins were quantified by densitometry scanning using Molecular Imager FX 5 and Quantity One software (Bio-Rad, Hercules, Calif.).
Coomassie stained bands (29 kD and 31 kD, as indicated) were quantified to determine an initial rate of capture (FIG. 3). Insulin B:16-23 peptide (FITC-[…]; SEQ ID NO: 1) and rIAg7 were mixed (10:1, peptide:rIAg7) in 100 mM NaPO₄, pH 6.5, 150 mM NaCl, 0.05% SDS, and 0.01% NaN₃ and allowed to incubate for the indicated time.

For experiment [3], the target named is T2, recombinant IAg7 (rIAg7; RTL450), …. Kind of experiment: disulfide capture of FITC-labeled peptides, SDS-PAGE.
For experiment [4] the target is unchanged. Kind of experiment: disulfide capture, Coomassie stained SDS-PAGE. How it is done: as §1
A recombinant form of IAg7 (rIAg7) comprising the β1 and α1 domains of the MHC class II molecule expressed as a single polypeptide (rIAg7; RTL450-series) was designed. IAg7-derived constructs are readily produced in E. coli, are well-behaved in aqueous buffers, and bind antigenic peptides. All MHC class II β1 domains comprise a disulfide bond between cysteine 17 and cysteine 79. Insulin B:9-23 is an antigenic peptide that binds IAg7 and comprises a cysteine residue at position 19. […]

Experiment [5] deals with T3, recombinant murine I-A^b (β1α1 RTL) (mouse).
T3 construct: Single-chain two-domain MHC class II polypeptide, with no peptide attached before loading; also called rI-A^b RTL; rIAb
T3 chain: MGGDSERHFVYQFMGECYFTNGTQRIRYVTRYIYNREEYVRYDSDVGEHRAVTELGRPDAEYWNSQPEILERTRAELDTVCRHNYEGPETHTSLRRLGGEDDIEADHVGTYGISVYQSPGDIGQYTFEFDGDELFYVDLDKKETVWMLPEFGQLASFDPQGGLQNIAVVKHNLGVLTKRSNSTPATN
The experiment is described as follows: disulfide capture, SDS-PAGE.

Primed or numbered codes have the meaning given here. Ends that are not written are not given here. FITC′ = fluorescein isothiocyanate label

B1: MOG35-55 P43C variant (peptide)
peptide: MEVGWYRSCFSRVVHLYRNGK
notes: also called hMOG35-55 P43C variant
As for B1, the binding result in experiment [1] is “binds”.

B2: MOG35-55 S42C variant (peptide)
peptide: MEVGWYRCPFSRVVHLYRNGK
notes: also called hMOG35-55 S42C variant
For the molecule B2, the binding result in experiment [1] is listed as “binds”.

B3: FITC-labeled 8-mer insulin B:16-23 peptide (peptide)
peptide: {FITC′}-YLVCGERG
notes: The C-terminal 8 amino acids of B:9-23
Take B3: the binding result in experiment [2] is recorded as “binds”.

B4: FITC-labeled insulin B:9-23 peptide, wild-type sequence (C19) (peptide)
peptide: {FITC′}-SHLVEALYLVCGERG
notes: also called Wild-type insulin B:9-23 peptide (C19); amino-terminal FITC-coupled B:9-23
As to B4, the binding result in experiment [3] was “binds”.

B5: FITC-labeled insulin B:9-23 C18 variant (cysteine moved to position 18) (peptide)
peptide: {FITC′}-SHLVEALYLCAGERG
Take B5: the binding result in experiment [3] is “binds”.

B6: insulin B:9-23 peptide (peptide)
peptide: SHLVEALYLVCGERG
notes: Synthetic peptide; also called Insulin B:9-23 (WT); InsB:9-23
On to B6, for which the binding result in experiment [4] was “binds”.

B7: S45C mutated mouse MOG35-55 (peptide)
peptide: MEVGWYRPPFCRVVHLYRNGK
notes: also called mMOG35-55 S45C variant; mouse MOG35-55 S45C variant
On to B7, for which, in experiment [5], the binding result is reported as “binds”.

B8: FITC-labeled insulin B:9-23 C20 variant (cysteine moved to position 20) (peptide)
peptide: {FITC′}-SHLVEALYLVACERG
For the molecule B8, the binding result in experiment [3] was “binds”.
